From patent publication US9040626B2, “Nanofibers and morphology shifting micelles” (The Regents of the University of California, priority 2009, dated 2015)
d = 2'-deoxy (DNA); r = 2'-OH (RNA)

Key:
DNAzyme = DNAzyme catalysis experiments: particle substrate vs ssDNA substrate; format: biochemical
Experimental: DNAzyme catalysis experiments. Fluorescence was directly measured at time points of 2 min, 5 min, 10 min, and 15 min after adding DNAzyme to F-ssDNA solutions in a 96-well plate. Maximum fluorescence for the DNAzyme (5 nM) added to micellar particles (0.14 g/L) at 15 minutes was set to a value of 1 for normalization of data. Complete consumption of particle bound substrate was confirmed by a calibration curve plotted for fluorescence vs concentration of a fluorescein-modified oligonucleotide (DNA-F—see above for synthesis and sequence). i.e. plateau in resulting curve is due to consumption of substrate not product inhibition. […] Fluorescent product from shell DNA cleavage was measured from supernatant that passed through a 10,000 MWCO spin tube filter. i.e. particles are left behind, and fluorescent product comes through for analysis at each time point. […]
The DNAzyme catalyst consists of a conserved DNA sequence forming a catalytic domain with 5′- and 3′-ends as recognition sequences.^22 Therefore, a DNA substrate with a single RNA base (rA) as the site of cleavage was chosen for incorporation in the DNA-brush copolymer architecture used to form micellar aggregates (FIG. 25). […] By centrifuging at 14,000×g for 30 seconds at given time points, the ssDNA product was separated from particles as it passed through the MWCO filter for analysis by fluorescence. […]

[1] = Critical micelle concentration (CMC) determination with pyrene probe; format: physicochemical; settings: micelles after DNA2 hybridization
Experimental: Critical Micelle Concentration (CMC) determination. A stock solution of pyrene was prepared by adding 1 mg pyrene in 10 mL of 20 mM Tris buffer (pH 7.4) and sonicating for 12 hrs, followed by centrifugation at 12,000×g for 5 min. The supernatant containing pyrene as the fluorescent probe was utilized for this assay and measured on a plate reader fluorometer, SPECTRAMAX GEMINI EM (Molecular Devices). DNA-lipid concentration was measured via UV absorbance and micelles were accordingly diluted serially in 96-well microplates (black well, black bottom, FIA, Greiner Bio-One). Excitation was done over a 300-360 nm wavelength range and the emission was recorded at 390 nm. The slit width for excitation was fixed at 1 nm. The concentration was plotted on a logarithmic scale and the critical micelle concentration was determined at the intercept of the two tangents drawn where the decreasing surface tension becomes constant.

[2] = Particle size by DLS, TEM, AFM, SEM; format: physicochemical
Excerpt: (§1) General Methods. All reagents were bought from TCI or Sigma-Aldrich and used without further purification. DNA synthesis reagents and modifiers were bought from Glen Research or AZCO scientific. 3,4-di(octadecyloxy)benzoic acid was synthesized via a standard literature procedure (Tuffin, R. P.; Toyne, K. J.; Goodby, J. W. J. Mater. Chem. 1996, 6, 1271-1282). All DNA was synthesized on an ABI-391 via standard solid phase synthesis on controlled pore glass supports. Fluorescence measurements were performed on a Zeiss LSM confocal fluorescence microscope. Reaction volumes of 50 μL were used in all fluorescence experiments of this type. […] DNA-surfactant and DNA concentrations were determined via UV-Vis on a Hitachi U-2810 spectrophotometer. Dh was determined by DLS on a Nano-ZS90 Malvern Instrument. Zeta potential was also measured on the Nano-ZS90 Malvern instrument. […] The identities of organic molecules were confirmed by ^1H (400 MHz) and ^13C (100 MHz) NMR spectra recorded on a Varian Mercury Plus spectrometer. […]
General Methods. […] Fluorescence measurements were performed with a microplate reader (Perkin Elmer, HTS7000 Plus, λex=485 nm, λem=535 nm) using black 96 well plates. Reaction volumes of 100 μL were used in all fluorescence experiments of this type. […]

[3] = Zeta potential measurement with variable MgCl2 concentration; format: physicochemical; settings: vesicles, 5 mM MgCl2
Excerpt: as §1
Zeta potential measurement with variable MgCl2 concentration. […] The zeta potential of these samples with variable MgCl2 concentrations was then measured by a Nano-ZS90 Malvern instrument. […]

Substance	DNAzyme turnovers (DNAzyme; 2 μM substrate, 5 nM catalyst) [turnovers]	DNAzyme turnover over the same time scale (15 minutes) (DNAzyme; F-ssDNA 1 μM, DNAzyme 5 nM)	critical micelle concentration [1] [nM]	micelle size ([2]; after DNA2 addition to vesicles)	vesicle diameter ([2]; spherical vesicles after dialysis, Tris 50 mM pH 7.4)	zeta-potential [3] [mV]
Fluorescein-5′-TCGCACCCrAGTCTCTCTCC-3′-Dabcyl (DNA TCGCACCCAGTCTCTCTCC; sugars from the 5' end d8 r1 d10, backbone not given here; further chemistry not fully specified) [F-ssDNA, fluorogenic single-stranded DNA substrate]	1.5	low turnover	–	–	–	–
DNA1-lipid: 3,4-di(octadecyloxy)benzoic acid conjugated to 5′-amino 9-mer ssDNA 5′-NH2-TCGCACCCA-3′; assembles into vesicles	–	–	300	20-25 nm	approx. 500 nm	−13
